Experimental data as given in patent publication US20260263521A1 (AIMED BIO, published 2026).
Values belong to the binder of their own block, whether it stands above or below them.

What was measured:
[1] = molecular target: T1, human CD200RLa (Sino Biological, 11620-H08H) recombinant protein (human, UniProt Q6Q8B3 24-239); assay: ELISA, plate-bound human CD200RLa (2 ug/mL), antibody 0.0192-300 nM, O.D 450 nm; panel 'recombinant human CD200RLa'
T1 construct: Bought; construct not described
T1 sequence (looked up): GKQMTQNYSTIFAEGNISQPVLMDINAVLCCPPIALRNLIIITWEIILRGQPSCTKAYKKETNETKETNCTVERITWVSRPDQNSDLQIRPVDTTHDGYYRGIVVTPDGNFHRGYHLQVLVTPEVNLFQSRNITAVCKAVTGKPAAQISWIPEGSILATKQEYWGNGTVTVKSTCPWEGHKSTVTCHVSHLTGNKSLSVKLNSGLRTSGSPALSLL
Method in brief: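 Plates coated overnight (16 h, 4° C) with human or cynomolgus CD200RLa recombinant protein, blocked with 3% skim milk; bound antibody detected by TMB colour development, reaction stopped before reading.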

Hybrid CD200R1 MH [2] = molecular target: T2, Hybrid CD200R1 MH (mouse;human, UniProt Q9ES57;Q8TD46); assay: ELISA, plate-bound MH hybrid (1 ug/mL), antibody 0.0192-300 nM, O.D 450 nm; panel 'P001 MH domain-1)'
T2 construct: single domain; mouse D1 over human D2; also called MH hybrid domain; P001 MH domain
T2 sequence (hybrid extracellular part, looked up): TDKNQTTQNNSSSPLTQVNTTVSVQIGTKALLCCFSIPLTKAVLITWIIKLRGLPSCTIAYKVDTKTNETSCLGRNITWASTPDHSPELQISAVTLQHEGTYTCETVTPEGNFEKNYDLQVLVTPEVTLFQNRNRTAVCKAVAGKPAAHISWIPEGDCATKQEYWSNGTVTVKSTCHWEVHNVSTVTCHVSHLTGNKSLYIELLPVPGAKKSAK
Method: (§1) Recombinant proteins were produced from the extracellular Ig-like V-type domain and Ig-like C2-type domain of human CD200R1, each designed as human-mouse (HM hybrid domain) and mouse-human (MH hybrid domain) recombinant proteins. A 96-well plate was coated at a concentration of 1 μg/mL with each protein at 4° C. for 16 hours and blocked with 3% skim milk. […] After color development with TMB substrate solution (Thermo Scientific, 34029, 1-Step™ Ultra TMB-ELISA Substrate Solution), the color reaction was stopped with a stop solution (Invitrogen, SS04, ELISA Stop Solution), and the absorbance was measured at an O.D. of 450 nm.

[3] = molecular target: T3, mouse CD200R1 protein (R&D systems, 2554-CD) (mouse, UniProt Q9ES57 26-238, limits assumed); assay: ELISA on coated mouse CD200R1
T3 construct: Bought; construct not described
T3 sequence (looked up): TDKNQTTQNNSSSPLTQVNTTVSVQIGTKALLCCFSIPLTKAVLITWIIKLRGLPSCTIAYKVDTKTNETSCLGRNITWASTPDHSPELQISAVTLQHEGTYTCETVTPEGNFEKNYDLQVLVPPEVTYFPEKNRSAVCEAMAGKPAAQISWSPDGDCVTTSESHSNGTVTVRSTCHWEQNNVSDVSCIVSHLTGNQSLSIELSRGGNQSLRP

[4] = molecular target: T4, human CD200R1 expressed on cells (Jurkat-CD200R1, U937-CD200R1, HH cells) (human, UniProt Q8TD46 25-348); assay: cell-based or functional assay
T4 sequence (looked up): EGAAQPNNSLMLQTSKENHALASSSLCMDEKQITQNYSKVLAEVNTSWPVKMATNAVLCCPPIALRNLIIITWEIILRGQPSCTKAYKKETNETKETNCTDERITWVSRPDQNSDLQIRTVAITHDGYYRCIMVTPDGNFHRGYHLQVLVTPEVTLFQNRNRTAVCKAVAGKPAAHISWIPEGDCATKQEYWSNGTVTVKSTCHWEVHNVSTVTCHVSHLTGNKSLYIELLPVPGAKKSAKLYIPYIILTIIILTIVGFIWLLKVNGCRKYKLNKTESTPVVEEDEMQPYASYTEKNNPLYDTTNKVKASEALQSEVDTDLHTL

[5] = molecular target: T4, human CD200R1 expressed on cells …; assay: flow cytometry, U937-CD200R cells
Method: (§2) Two additional wells were treated with 10 μl of mouse IgG1K (BD, #555751) and 5 μl of commercial CD200R1 antibody (Biolegend, #329308) to determine CD200R1 expression on the cell line surface for cell quality control.
(§3) The antibodies were serially diluted 10-fold from a maximum concentration of 100 nM to 10 nM, 1 nM, […], and were added to the pre-seeded cells. After reaction for 1 hour at 4° C., the cells were treated with Alexa-647 goat anti-human IgG (H+L) cross-adsorbed secondary antibody (Invitrogen, #A21445) and incubated for an additional 30 minutes at 4° C. After washing twice with FACS buffer, flow cytometry was performed using a Novocyte Flow cytometer (Agilent). Using GraphPad Prism software, the EC₅₀ was determined using a nonlinear graph model of log (agonist) vs. response-variable slope, as shown in Table 32.

[6] = molecular target: T4, human CD200R1 expressed on cells …; assay: flow cytometry, Jurkat-CD200R cells
Method: as §2, §3

[7] = molecular target: T5, human CD200R1 with dual His-tags (human, UniProt Q8TD46 25-265); assay: SPR (Biacore CM5), His-tagged antigen captured by anti-histidine antibody, antibody as analyte, 1:1 Langmuir fit
T5 construct: Captured on the SPR chip by an anti-histidine antibody; also called hCD200R1-his; not shown: dual His-tags
T5 sequence (looked up): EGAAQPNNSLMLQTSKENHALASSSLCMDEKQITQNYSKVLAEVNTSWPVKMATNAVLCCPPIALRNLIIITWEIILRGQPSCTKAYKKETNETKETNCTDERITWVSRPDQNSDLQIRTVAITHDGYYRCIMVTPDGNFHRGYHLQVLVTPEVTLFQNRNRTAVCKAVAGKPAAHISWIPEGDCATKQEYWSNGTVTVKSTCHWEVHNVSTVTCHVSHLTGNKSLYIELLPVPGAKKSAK
Method: (§4) For the experiment, 30 μg/mL of an anti-histidine antibody was conjugated to a CM5 biacore chip via an amine bond while allowing to flow at 10 μl/min (10,000 RU). Then, 0.25 μg/mL of human or cynomolgus CD200R1 with dual His-tags was captured onto the completed chip for 60 seconds, and the binding ability of each antibody was analyzed. All experiments were performed by association of antibodies for 120 seconds and dissociation of antibodies for 600 seconds. The resulting graphs were fitted using a 1:1 Langmuir binding kinetic model (FIG. 16), and the kinetics of each antibody were calculated.

[8] = molecular target: T6, cynomolgus CD200R1 with dual His-tags (cynomolgus, UniProt G7NZT0 25-266); assay: as above
T6 construct: Captured on the SPR chip by an anti-histidine antibody; also called CCD200R1-his; cCD200R1-his; not shown: dual His-tags
T6 sequence: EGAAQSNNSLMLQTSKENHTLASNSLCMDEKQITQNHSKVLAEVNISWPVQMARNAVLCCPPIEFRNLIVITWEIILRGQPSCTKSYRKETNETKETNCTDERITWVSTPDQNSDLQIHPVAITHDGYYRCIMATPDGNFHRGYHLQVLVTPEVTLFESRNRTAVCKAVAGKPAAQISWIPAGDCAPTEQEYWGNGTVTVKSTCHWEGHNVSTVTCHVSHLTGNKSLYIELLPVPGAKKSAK
Method: as §4

[9] = molecular target: T7, human CD200R1 recombinant protein (construct not stated) (human, UniProt Q8TD46 27-266, limits assumed); assay: ELISA on human CD200R1, normalized absorbance at 450 nm, 0.0192-300 nM; panel 'Human CD200R1'
T7 sequence (looked up): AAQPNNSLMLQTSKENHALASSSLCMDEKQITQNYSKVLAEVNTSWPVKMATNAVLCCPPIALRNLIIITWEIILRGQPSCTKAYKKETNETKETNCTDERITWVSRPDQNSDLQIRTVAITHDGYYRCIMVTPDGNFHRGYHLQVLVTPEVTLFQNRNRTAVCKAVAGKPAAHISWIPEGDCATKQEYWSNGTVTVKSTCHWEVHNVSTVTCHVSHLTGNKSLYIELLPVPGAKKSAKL

[10] = molecular target: T4, human CD200R1 expressed on cells …; assay: flow cytometry, HH cells
Method: as §2, §3

[11] = molecular target: T4, human CD200R1 expressed on cells …; assay: cell-based or functional assay; remark: listed apart in the source
[12] = molecular target: T7, human CD200R1 recombinant protein …; assay: hybridoma ELISA on human CD200R1
Hybrid CD200R1 MH [13] = molecular target: T2, Hybrid CD200R1 MH; assay: ELISA, plate-bound MH hybrid (1 ug/mL), antibody 0.0192-300 nM, O.D 450 nm; panel 'P001 MH domain-4)'
Method: as §1

B2: P001016 (IgG) (antibody, V domains shown)
VH: EVQLLESGGGLVQPGGSLRLSCAASGFTFSGYDMSWVRQAPGKGLEWVSGISYDGGSKYYADSVKGRFTISRDNSKNTLYLQMNSLRAEDTAVYYCAKDGYPLGAYYFDYWGQGTLVTVSS
VL: QSVLTQPPSASGTPGQRVTISCSVSSSNIGSNYVSWYRQLPGTAPKLLIYDDSKRPSGVPDRFSGSKSGTSASLAISGLRSEDEADYYCGTWDASLNGYVFGGGTKLTVL
binding result [3]: no binding (tested: 300 nM (highest concentration tested))

B4: 6A10 (hybridoma clone) (antibody, V domains shown)
VH: QLQQSGAELVRSGASVKLSCTASGFNIKDYYLHWIKQRPEQGLEWIGWIDPENGDTEYAPKFQGKATMTADTSSNTAYLQLISLTSEDAAVYYCFAGGSYWGQGTSVTVSS
VL: DIVMTQSPSSLSVSAGEKVTMSCKSSQSLLNSGNQKNYLAWYQQKPGQPPKLLIYGASTRESGVPDRFTGSGSGTDFTLTISSVQAEDLAVYYCQNDHSYPYTFGGGTKLEIK
ELISA O.D. [12]: ≥ 1.5 O.D. | binding result (Hybrid CD200R1 MH [13]): no binding (tested: 300 nM)

Further lines, with some results ahead:

binding result [1]: no binding (tested: 300 nM)
B1: P001001 (IgG) (antibody, V domains shown)
VH: EVQLLESGGGLVQPGGSLRLSCAASGFTFSSYDMHWVRQAPGKGLEWVSRISFTGSTSYNPSLKSRFTISRDNSKNTLYLQMNSLRAEDTAVYYCARDTWWEGYFDLWGQGTLVTVSS
VL: QSVLTQPPSASGTPGQRVTISCSGSSSNIGNNHVSWYQQLPGTAPKLLIYDDTDRLTSVPNRFSGSKSGTSASLAISGLRSEDEADYYCGTWDSSLSAYVFGGGTKLTVL
binding result (Hybrid CD200R1 MH [2]): no binding (tested: 300 nM) | binding result [3]: no binding (tested: 300 nM (highest concentration tested))

Kd [8]: 0.264 nM | koff [8]: 0.00138 s⁻¹ | kon [8]: 5.23e+06 M⁻¹ s⁻¹
B3: P001009v1 (antibody, V domains shown)
VH: EVQLLESGGGLVQPGGSLRLSCAASGFTFSSYDMSWVRQAPGKGLEWVSWISHGGGSIYYADSVKGRFTISRDNSKNTLYLQMNSLRAEDTAVYYCARDAPAYSAPLFDYWGQGTLVTVSS
VL: QSVLTQPPSASGTPGQRVTISCSGSSSNIGNNAVNWYQQLPGTAPKLLIYYDKNRPSGVPDRFSGSKSGTSASLAISGLRSEDEADYYCAAWDDRLSGYVFGGGTKLTVL
notes: P001009 with LC S52K and S94R (Kabat); also called P019001v1; P0001009v1
EC50 (nM), degree of signal transduction by the Dok2 protein [4]: 1.28 nM | EC50 [5]: 0.3 nM | EC50 [6]: 0.17 nM | Kd [7]: 0.021 nM | koff [7]: 0.0001 s⁻¹ | kon [7]: 4.77e+06 M⁻¹ s⁻¹ | EC50 (read off the curve) [9]: ~3 nM | EC50 [10]: 0.16 nM | IC50 (nM) of IL-6 inhibition, LPS-treated U937-CD200R1 cells [11]: 0.1 nM | IC50 (nM) of TNF-α inhibition, LPS-treated U937-CD200R1 cells [11]: 0.18 nM
